Legend:
Sp1 = Sp1 (UniProt P08047 1-785); assay: EMSA
[1] = biological target: T1, 15N-G11,G20,G37-HMGA1(2/3) peptide (UniProt P17096 49-91); assay: NMR
T1 chain: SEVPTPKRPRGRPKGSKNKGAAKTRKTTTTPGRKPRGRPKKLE

[2] = biological target: T2, HMGA1(2/3) peptide (AT-hooks DBD2 and DBD3) (UniProt P17096 49-91); assay: EMSA
T2 chain: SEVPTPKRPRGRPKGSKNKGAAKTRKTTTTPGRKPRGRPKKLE

Sequence of Sp1 (P08047 whole entry): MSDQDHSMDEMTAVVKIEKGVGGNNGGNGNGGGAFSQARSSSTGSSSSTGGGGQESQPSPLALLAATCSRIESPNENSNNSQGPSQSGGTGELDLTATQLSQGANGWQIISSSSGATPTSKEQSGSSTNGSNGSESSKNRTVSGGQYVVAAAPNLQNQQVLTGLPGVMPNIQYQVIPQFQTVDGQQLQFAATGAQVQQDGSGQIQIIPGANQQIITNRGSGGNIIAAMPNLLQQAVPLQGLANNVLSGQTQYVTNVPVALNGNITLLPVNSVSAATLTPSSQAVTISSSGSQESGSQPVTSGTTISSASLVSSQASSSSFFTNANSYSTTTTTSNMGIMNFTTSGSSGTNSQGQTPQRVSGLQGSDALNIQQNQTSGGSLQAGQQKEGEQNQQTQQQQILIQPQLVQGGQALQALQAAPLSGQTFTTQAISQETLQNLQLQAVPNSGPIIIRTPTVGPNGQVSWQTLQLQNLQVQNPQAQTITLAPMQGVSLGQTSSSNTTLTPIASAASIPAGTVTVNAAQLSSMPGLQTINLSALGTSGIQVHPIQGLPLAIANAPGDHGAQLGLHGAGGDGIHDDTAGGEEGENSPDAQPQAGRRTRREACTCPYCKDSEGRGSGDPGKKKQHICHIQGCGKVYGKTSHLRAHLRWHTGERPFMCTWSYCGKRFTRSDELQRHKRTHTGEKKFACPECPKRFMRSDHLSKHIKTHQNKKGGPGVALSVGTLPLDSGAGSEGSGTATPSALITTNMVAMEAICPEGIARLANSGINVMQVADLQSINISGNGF

B1: Sp1 consensus probe (dsDNA)
DNA 1: ATTCGATCGGGGCGGGGCGAGC
DNA 2: GCTCGCCCCGCCCCGATCGAAT
binding result (Sp1): binds

B2: NOS2 Oct 16-bp DNA (NMR) (dsDNA)
DNA 1: AGTTATGCAAAATAGC
DNA 2: GCTATTTTGCATAACT
binding result [1]: binds

B3: NOS2 Oct EMSA probe (-65/-50) (dsDNA)
DNA 1: AGTTATGCAAAATAGC
DNA 2: GCTATTTTGCATAACT
binding result [2]: binds
